As usually defined, the Km is the concentration of substrate that gives half-maximal velocity.

Substrate in series [1]: CN(CC(=O)O)C(=O)CN
Put plainly: TP_TRANSPORTER: uptake in Caco-2 cells. It counts as functional, cell-based.

Substrate in series [2]: CN(CC(=O)O)C(=O)CN
Put plainly: TP_TRANSPORTER: uptake in PEPT1-overexpressing Caco-2 cells. The series is classed as functional, cell-based.

B1: Solute carrier family 15 member 1 (Homo sapiens), P46059 (protein)
chain: MGMSKSHSFFGYPLSIFFIVVNEFCERFSYYGMRAILILYFTNFISWDDNLSTAIYHTFVALCYLTPILGALIADSWLGKFKTIVSLSIVYTIGQAVTSVSSINDLTDHNHDGTPDSLPVHVVLSLIGLALIALGTGGIKPCVSAFGGDQFEEGQEKQRNRFFSIFYLAINAGSLLSTIITPMLRVQQCGIHSKQACYPLAFGVPAALMAVALIVFVLGSGMYKKFKPQGNIMGKVAKCIGFAIKNRFRHRSKAFPKREHWLDWAKEKYDERLISQIKMVTRVMFLYIPLPMFWALFDQQGSRWTLQATTMSGKIGALEIQPDQMQTVNAILIVIMVPIFDAVLYPLIAKCGFNFTSLKKMAVGMVLASMAFVVAAIVQVEIDKTLPVFPKGNEVQIKVLNIGNNTMNISLPGEMVTLGPMSQTNAFMTFDVNKLTRINISSPGSPVTAVTDDFKQGQRHTLLVWAPNHYQVVKDGLNQKPEKGENGIRFVNTFNELITITMSGKVYANISSYNASTYQFFPSGIKGFTISSTEIPPQCQPNFNTFYLEFGSAYTYIVQRKNDSCPEVKVFEDISANTVNMALQIPQYFLLTCGEVVFSVTGLEFSYSQAPSNMKSVLQAGWLLTVAVGNIIVLIVAGAGQFSKQWAEYILFAALLLVVCVIFAIMARFYTYINPAEIEAQFDEDEKKNRLEKSNPYFMSGANSQKQM
On to B1, for which the results for the Km in series [1] and in series [2] were 700 µM and 2100 µM, respectively.
